This is an account of results in paper PMC3677924, “Biochemical and Functional Analysis of Drosophila-Sciara Chimeric Sex-Lethal Proteins”.

Conditions in all cases: protein: recombinant; tags: GST; label: fluorescein (RNA labelling mix)
For data set [1], the target named is T1, SXM (GST-SXL Drosophila) (Drosophila melanogaster, UniProt P19339 1-354).
T1 sequence: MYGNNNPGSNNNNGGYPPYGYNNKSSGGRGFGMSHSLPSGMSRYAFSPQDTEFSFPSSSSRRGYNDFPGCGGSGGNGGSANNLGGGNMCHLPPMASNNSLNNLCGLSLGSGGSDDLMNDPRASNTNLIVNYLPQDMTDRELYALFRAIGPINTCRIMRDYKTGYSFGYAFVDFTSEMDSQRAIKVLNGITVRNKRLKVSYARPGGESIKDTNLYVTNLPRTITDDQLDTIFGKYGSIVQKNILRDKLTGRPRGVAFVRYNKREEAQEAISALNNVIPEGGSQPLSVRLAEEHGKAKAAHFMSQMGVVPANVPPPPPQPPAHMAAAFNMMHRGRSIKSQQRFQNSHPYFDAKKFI
Kind of data set: EMSA; apparent Kd, Hill fit; error 95% CI; 20 mM Hepes pH 8.0, 0.1 M KCl, 0.5 mM EDTA, 1 mM DTT, 0.05% NP40, 20% glycerol, 3 µg yeast tRNA; 5 min on ice, then 10 min at room temperature with RNA; 5% native PAGE, 0.25x TBE.

The next data set concerns the target T2, SXS (GST-SXL Sciara) (Sciara ocellaris, UniProt Q86QM9 1-287).
T2 sequence: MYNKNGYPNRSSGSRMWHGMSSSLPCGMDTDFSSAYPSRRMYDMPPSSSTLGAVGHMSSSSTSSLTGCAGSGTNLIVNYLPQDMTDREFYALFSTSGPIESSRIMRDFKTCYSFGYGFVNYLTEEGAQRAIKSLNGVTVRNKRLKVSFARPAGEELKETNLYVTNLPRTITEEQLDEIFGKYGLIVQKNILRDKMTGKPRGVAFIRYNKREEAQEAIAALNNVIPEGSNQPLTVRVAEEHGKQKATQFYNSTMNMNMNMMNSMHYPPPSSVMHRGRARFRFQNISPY
Kind of data set: EMSA; Hill n=1; error 95% CI; 20 mM Hepes pH 8.0, 0.1 M KCl, 0.5 mM EDTA, 1 mM DTT, 0.05% NP40, 20% glycerol, 3 µg yeast tRNA; 5 min on ice, then 10 min at room temperature with RNA; 5% native PAGE, 0.25x TBE. (A gel shift assay detects complexes by their altered migration in electrophoresis.)

For data set [2], the target named is T1, SXM (GST-SXL Drosophila). Kind of data set: EMSA; cooperative, Hill n>2; error 95% CI; 20 mM Hepes pH 8.0, 0.1 M KCl, 0.5 mM EDTA, 1 mM DTT, 0.05% NP40, 20% glycerol, 3 µg yeast tRNA; 5 min on ice, then 10 min at room temperature with RNA; 5% native PAGE, 0.25x TBE.

B1: single poly(U) SXL site (ssRNA)
RNA: ACAUAUUUUUUUUCACAGC
Take B1: the Kd with SXM (GST-SXL Drosophila) [1] was 150 ± 20 µM.

B2: double poly(U) SXL site (ssRNA)
RNA: CAUGAUUAUUUUUUUUUAUUUUUUUUCGGUGA
Take B2: the Kd with SXS (GST-SXL Sciara) amounted to 300 ± 200 nM; in the data set with SXM (GST-SXL Drosophila) [2], 500 ± 300 nM.
